According to publication PMC8115264, “Mitofusin-2 stabilizes adherens junctions and suppresses endothelial inflammation via modulation of β-catenin signaling” (Nature Communications, 2021):

Biological target: T1, GFP-Mfn2 (UniProt O95140 1-757)
T1 construct: The construct was generated in the authors' laboratory; also called lentiviral GFP-Mfn2; GFP-tagged Mfn2; source: HLMVECs, lentiviral expression (pWPXL), in lysate
T1 sequence (looked up): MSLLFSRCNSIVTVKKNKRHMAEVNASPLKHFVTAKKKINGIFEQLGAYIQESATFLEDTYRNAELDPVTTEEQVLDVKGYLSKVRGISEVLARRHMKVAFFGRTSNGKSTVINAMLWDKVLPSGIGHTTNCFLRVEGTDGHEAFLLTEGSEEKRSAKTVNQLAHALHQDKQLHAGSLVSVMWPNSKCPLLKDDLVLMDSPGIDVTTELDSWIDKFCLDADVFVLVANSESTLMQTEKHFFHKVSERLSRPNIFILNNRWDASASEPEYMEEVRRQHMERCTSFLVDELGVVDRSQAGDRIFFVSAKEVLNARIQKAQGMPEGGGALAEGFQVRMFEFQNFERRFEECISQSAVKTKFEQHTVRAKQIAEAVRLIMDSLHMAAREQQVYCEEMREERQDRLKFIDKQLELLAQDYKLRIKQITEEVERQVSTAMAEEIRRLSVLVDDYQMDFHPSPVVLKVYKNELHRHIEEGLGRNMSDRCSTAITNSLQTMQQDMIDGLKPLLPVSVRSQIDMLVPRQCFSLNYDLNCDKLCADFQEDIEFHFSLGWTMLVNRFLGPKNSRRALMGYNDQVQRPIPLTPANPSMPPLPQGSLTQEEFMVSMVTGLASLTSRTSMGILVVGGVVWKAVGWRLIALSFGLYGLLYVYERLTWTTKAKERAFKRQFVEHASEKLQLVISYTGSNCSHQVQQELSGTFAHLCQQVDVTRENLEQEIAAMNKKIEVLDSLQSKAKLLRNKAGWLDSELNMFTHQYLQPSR
Test: co-IP; HLMVECs expressing GFP or GFP-Mfn2, with or without TNFα (10 ng/mL) for 6 h; GFP-Mfn2 immunoprecipitated with GFP-trap magnetic agarose, Western blot for β-catenin and Mfn2
Conditions: partners not purified

fold increase of the interaction after TNFα against basal: 6 fold
B1: β-catenin (natural protein, human (endogenous in HLMVECs), UniProt P35222 1-781, looked up)
chain: MATQADLMELDMAMEPDRKAAVSHWQQQSYLDSGIHSGATTTAPSLSGKGNPEEEDVDTSQVLYEWEQGFSQSFTQEQVADIDGQYAMTRAQRVRAAMFPETLDEGMQIPSTQFDAAHPTNVQRLAEPSQMLKHAVVNLINYQDDAELATRAIPELTKLLNDEDQVVVNKAAVMVHQLSKKEASRHAIMRSPQMVSAIVRTMQNTNDVETARCTAGTLHNLSHHREGLLAIFKSGGIPALVKMLGSPVDSVLFYAITTLHNLLLHQEGAKMAVRLAGGLQKMVALLNKTNVKFLAITTDCLQILAYGNQESKLIILASGGPQALVNIMRTYTYEKLLWTTSRVLKVLSVCSSNKPAIVEAGGMQALGLHLTDPSQRLVQNCLWTLRNLSDAATKQEGMEGLLGTLVQLLGSDDINVVTCAAGILSNLTCNNYKNKMMVCQVGGIEALVRTVLRAGDREDITEPAICALRHLTSRHQEAEMAQNAVRLHYGLPVVVKLLHPPSHWPLIKATVGLIRNLALCPANHAPLREQGAIPRLVQLLVRAHQDTQRRTSMGGTQQQFVEGVRMEEIVEGCTGALHILARDVHNRIVIRGLNTIPLFVQLLYSPIENIQRVAAGVLCELAQDKEAAEAIEAEGATAPLTELLHSRNEGVATYAAAVLFRMSEDKPQDYKKRLSVELTSSLFRTEPMAWNETADLGLDIGAQGEPLGYRQDDPSYRSFHSGGYGQDALGMDPMMEHEMGGHHPGADYPVDGLPDLGHAQDLMDGLPPGDSNQLAWFDTDL
notes: β-catenin, endogenous in human lung microvascular endothelial cells; also called beta-catenin; source: endogenous, HLMVEC lysate or fixed HLMVECs
